Experimental data from patent US20230049152A1 (Genentech, published 2023).
Residue numbers refer to the chain shown, from its start. Values belong to the binder of their own block, whether it stands above or below them.

Assays:
[1] = biological target: T1, CCR8 with C-terminal FLAG; experiment: flow cytometry, HEK293 transfected with CCR8 with C-terminal FLAG
T1 construct: expressed on transfected HEK293 cells; also called hCCR8 with a C-terminal FLAG tag

[2] = biological target: T2, hCCR8 D2A (human, UniProt P51685 1-355); experiment: flow cytometry, HEK293 transfected with hCCR8 D2A with C-terminal FLAG
T2 construct: alanine point mutant on transfected HEK 293 cells

[3] = biological target: T3, hCCR8 Y3A (human, UniProt P51685 1-355); experiment: flow cytometry, HEK293 transfected with hCCR8 Y3A with C-terminal FLAG
T3 construct: alanine point mutant on transfected HEK 293 cells
Experimental: (§1) FIGS. 16A-16B depict the epitope maps for hu.Ab5.H13L1 (FIG. 16A) and hu.Ab4.H12L3 (FIG. 16B) mAbs.
(§2) To epitope map fucosylated hu.Ab5.H13L1, the binding to alanine point mutations in human CCR8 was analyzed by flow cytometry.

[4] = biological target: T4, D14A; experiment: flow cytometry, HEK293 transfected with hCCR8 D14A with C-terminal FLAG; sheet prints [huCCR8]=0.02 ug/ml
T4 construct: single alanine mutant of hCCR8; also called hCCR8 D14A
T4 receptor chain: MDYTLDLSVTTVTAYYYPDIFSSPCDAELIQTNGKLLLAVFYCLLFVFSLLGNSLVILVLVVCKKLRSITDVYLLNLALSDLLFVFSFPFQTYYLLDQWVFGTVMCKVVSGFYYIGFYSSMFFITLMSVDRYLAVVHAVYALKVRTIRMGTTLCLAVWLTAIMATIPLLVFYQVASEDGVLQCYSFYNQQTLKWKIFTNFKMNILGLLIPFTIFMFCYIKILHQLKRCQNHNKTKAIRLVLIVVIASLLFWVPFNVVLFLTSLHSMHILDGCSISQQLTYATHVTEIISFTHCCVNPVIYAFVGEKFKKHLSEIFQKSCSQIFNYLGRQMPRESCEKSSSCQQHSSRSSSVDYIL

[5] = biological target: T5, P18A; experiment: flow cytometry, HEK293 transfected with hCCR8 P18A with C-terminal FLAG; sheet prints [huCCR8]=0.02 ug/ml
T5 construct: single alanine mutant of hCCR8; also called hCCR8 P18A
T5 receptor chain: T4 receptor chain with A14D, P18A

[6] = biological target: T6, T10A; experiment: flow cytometry, HEK293 transfected with hCCR8 T10A with C-terminal FLAG; sheet prints [huCCR8]=0.02 ug/ml
T6 construct: single alanine mutant of hCCR8; also called hCCR8 T10A
T6 receptor chain: T4 receptor chain with T10A, A14D

[7] = biological target: T7, Y15A; experiment: flow cytometry, HEK293 transfected with hCCR8 Y15A with C-terminal FLAG; sheet prints [huCCR8]=0.02 ug/ml
T7 construct: single alanine mutant of hCCR8; also called hCCR8 Y15A
T7 receptor chain: T4 receptor chain with A14D, Y15A

[8] = biological target: T8, Y17A; experiment: flow cytometry, HEK293 transfected with hCCR8 Y17A with C-terminal FLAG; sheet prints [huCCR8]=0.02 ug/ml
T8 construct: single alanine mutant of hCCR8; also called hCCR8 Y17A
T8 receptor chain: T4 receptor chain with A14D, Y17A
Experimental: as §1, §2

[9] = biological target: T9, human CCR8 (human, UniProt P51685 1-355); experiment: cell-based or functional assay
[10] = biological target: T9, human CCR8; experiment: cell-based or functional assay; remark: listed apart in the source

binding result [1]: binds | binding result [2]: no binding (tested: 0.02 ug/ml) | binding result [3]: no binding (tested: 0.02 ug/ml) | binding result [4]: binds | binding result [5]: binds | binding result [6]: binds | binding result [7]: binds | binding result [8]: binds
B1: hu.Ab5.H13L1 (antibody, human IgG1, kappa)
heavy: not shown
light: DIQVTQSPSSLSASVGDRVTITCQASENIANALAWYQQKPGKPPKFLIYGASNLASGVPSRFSGSGSGTDFTFTISSLQPEDIATYYCQQAYYGNSFVEGTFGGGTKVEIKRTVAAPSVFIFPPSDEQLKSGTASVVCLLNNFYPREAKVQWKVDNALQSGNSQESVTEQDSKDSTYSLSSTLTLSKADYEKHKVYACEVTHQGLSSPVTKSFNRGEC
notes: fucosylated human IgG1; also called Ab5 variant

CCL1 blocking potency IC50, Ca2+ influx [9]: 57.9 nM
B2: hu.Ab4.H1L1 (antibody, human IgG1, kappa)
heavy: not shown
light: DYQMTQSPSSLSASVGDRVTITCQASQSISSYLSWYQQKPGKRPKLLIYKASTLASGVPSRFSGSGSGTDFTLTISSLQPEDFATYYCQQGYTSSNIDNIFGGGTKVEIKRTVAAPSVFIFPPSDEQLKSGTASVVCLLNNFYPREAKVQWKVDNALQSGNSQESVTEQDSKDSTYSLSSTLTLSKADYEKHKVYACEVTHQGLSSPVTKSFNRGEC
notes: also called hu.Ab4.H1Ll

Ligand Blocking Activity IC50, Ca2+ influx [10]: 57.9 nM
B3: hu.Ab4.H12L3 (antibody, human IgG1, kappa)
heavy: not shown
light: B2 light with R43A
notes: fucosylated human IgG1; also called huCCR8-Ab4.H12L3.hIgG1; Ab4 variant
